Assay results taken from US20250295802A1, “HER3 ANTIBODY-DRUG CONJUGATE AND USE THEREOF” (DUALITY BIOLOGICS (SUZHOU) CO., LTD., priority 2022, published 2025).

Columns and labels:
His-HER3 = target: T1, His-HER3 (Homo sapiens, UniProt P21860); assay: Binding kinetics by Biacore (SPR); conditions: antibody as ligand, analyte His-HER3, Biacore T200
T1 construct: His
Description: Affinity assay by surface plasmon resonance (SPR): antibody kinetics and affinity were determined using Biacore T200. Briefly, the recombinant human HER3 antibody was immobilized on a protein A chip (GE, Cat. 29-1275-5). The antigen concentration, from 50 nM to a final concentration of 0.78125 nM, was generated by 2-fold serial dilution, and affinity and kinetics were determined through the chip.
The binding affinity of humanized 3F8 (hu3F8) and chimeric 3F8. Binding kinetics of 3 humanized 3F8 clones and chimeric 3F8 were determined by Biacore. Three humanized 3F8 clones (clone 1, clone 2 and clone 3) had different heavy chains and one identical light chain. Clone 1, clone 2, and clone 3 corresponded to hu3F8-1, hu3F8-2, and hu3F8-3, respectively.
All data listed in Table 6 were processed using Biacore T200 evaluation software version 3.1.

HER3 [1] = target: T2, HER3 (Homo sapiens, UniProt P21860); assay: ELISA binding affinity after incubation at 40° C. (heat stress); conditions: day 0
T2 construct: human Fc (huFc)
Description: ELISA assay: human HER2-ex-huFc, human HER3-huFc, and human EGFR-his were diluted to 2 μg/mL and 50 μL/well in a 96-well plate and incubated at 4° C. overnight. The plate was washed with 0.5×PBST, then incubated with 100 μL of a blocking buffer (PBS+3% BSA) at 37° C. for 2 h, and washed with 0.5×PBST. The 3F8 antibody was diluted with the blocking buffer in a 1:3 serial gradient, added at 50 μL/well, incubated at 37° C. for 40-50 min, and then washed with 0.5×PBST. Goat anti-mouse IgG-HRP (Southern Biotech, 1030-05) was diluted at 1:20000 with the blocking buffer, added at 50 μL/well, incubated in the dark for 30 min, and then washed with 0.5×PBST. […]
Antibody stability test: the purified antibody at 5 mg/mL was stored at 4° C. as regular practice, incubated at 40° C. for 7 days and 14 days for heat stability evaluation, transferred to a glycine solution at pH 3.5 for regeneration, and stored for 2, 4 and 6 h for acid stability evaluation, or subjected to repeated freeze-thaw treatments for 4 or 6 cycles for freeze-thaw stability evaluation. Aggregation was measured by SEC-HPLC, and binding affinity was determined by ELISA. […]
EC50 assay of the three clones of hu3F8 incubated at 40° C. for different times. The three humanized 3F8 antibody clones were incubated in normal saline at 40° C. for 7 or 14 days, and the binding affinities after heat stress test were determined by ELISA. […]

HER3 [2] = target: T2, HER3; assay: ELISA binding affinity after repeated freeze-thaw; conditions: 0 freeze-thaw cycles
Description: ELISA assay: human HER2-ex-huFc, human HER3-huFc, and human EGFR-his were diluted to 2 μg/mL and 50 μL/well in a 96-well plate and incubated at 4° C. overnight. The plate was washed with 0.5×PBST, then incubated with 100 μL of a blocking buffer (PBS+3% BSA) at 37° C. for 2 h, and washed with 0.5×PBST. The 3F8 antibody was diluted with the blocking buffer in a 1:3 serial gradient, added at 50 μL/well, incubated at 37° C. for 40-50 min, and then washed with 0.5×PBST. Goat anti-mouse IgG-HRP (Southern Biotech, 1030-05) was diluted at 1:20000 with the blocking buffer, added at 50 μL/well, incubated in the dark for 30 min, and then washed with 0.5×PBST. Prior to assay, 50 μL of luminol buffer A+B was added to each well in a 1:1 mix.
Antibody stability test: the purified antibody at 5 mg/mL was stored at 4° C. as regular practice, incubated at 40° C. for 7 days and 14 days for heat stability evaluation, transferred to a glycine solution at pH 3.5 for regeneration, and stored for 2, 4 and 6 h for acid stability evaluation, or subjected to repeated freeze-thaw treatments for 4 or 6 cycles for freeze-thaw stability evaluation. Aggregation was measured by SEC-HPLC, and binding affinity was determined by ELISA.
Three clones of hu3F8 were freeze-thawed for 3 or 5 cycles, and then subjected to ELISA to measure the binding affinities. The chimeric antibody was subjected to parallel assay.

- ka (His-HER3): 628000 M⁻¹ s⁻¹
- kd (His-HER3): 0.000391 s⁻¹
- EC50 after incubation at 40° C. (HER3 [1]): 0.04737 µg/mL
- EC50 after freeze-thaw stress (HER3 [2]): 0.04706 µg/mL
B1: Chimeric: murine-human chimeric 3F8 antibody with human IgG1 and Igκ constant regions (antibody, V domains shown)
VH: DVQLQESGPGLVKPSQSLSLTCSVTGYSITSAYYWNWIRQFPGDKLEWMGYISYDGRNNFNPSLKNRISITRDTSKNQFFLKLNSVTSGDTATYYCARDGDYDYFDYWGQGTTLTVSS
VL: DIQMTQTTSSLSASLGDRVTISCRASQDISNYLNWYQQKPDGTFKLLIYYTSILHSGVPSRFSGSGSGTDYSLTISNLEQEDIATYFCQQGDTLPPTFGAGTKLELK
